Measurements as given in patent US20250042994A1 (HAINAN SIMCERE ZAIMING PHARMACEUTICAL, published 2025).
Residue numbers refer to the chain shown, from its start.

T1: human CD19 on Raji cells (human, UniProt P15391 20-556)
T1 construct: whole, on cells
T1 sequence (looked up): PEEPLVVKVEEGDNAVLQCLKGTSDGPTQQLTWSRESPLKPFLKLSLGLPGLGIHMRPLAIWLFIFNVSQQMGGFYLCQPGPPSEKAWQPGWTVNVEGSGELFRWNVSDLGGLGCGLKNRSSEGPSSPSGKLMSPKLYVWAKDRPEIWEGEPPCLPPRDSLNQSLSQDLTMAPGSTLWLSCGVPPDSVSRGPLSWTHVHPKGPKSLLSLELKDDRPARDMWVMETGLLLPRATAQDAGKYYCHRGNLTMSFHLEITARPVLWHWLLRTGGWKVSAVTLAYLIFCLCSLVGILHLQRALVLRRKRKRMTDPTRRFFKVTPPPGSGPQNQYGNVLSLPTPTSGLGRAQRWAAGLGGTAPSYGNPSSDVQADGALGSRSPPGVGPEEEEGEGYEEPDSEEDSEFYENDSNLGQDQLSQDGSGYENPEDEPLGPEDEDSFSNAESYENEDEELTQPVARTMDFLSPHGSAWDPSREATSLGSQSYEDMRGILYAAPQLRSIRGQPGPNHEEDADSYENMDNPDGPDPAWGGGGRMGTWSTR

T2: Human CD19-his protein (human, UniProt P15391 20-291)
T2 construct: bought protein; also called recombinant human CD19-His; CD19 full-length protein; not shown: His tag
T2 sequence (looked up): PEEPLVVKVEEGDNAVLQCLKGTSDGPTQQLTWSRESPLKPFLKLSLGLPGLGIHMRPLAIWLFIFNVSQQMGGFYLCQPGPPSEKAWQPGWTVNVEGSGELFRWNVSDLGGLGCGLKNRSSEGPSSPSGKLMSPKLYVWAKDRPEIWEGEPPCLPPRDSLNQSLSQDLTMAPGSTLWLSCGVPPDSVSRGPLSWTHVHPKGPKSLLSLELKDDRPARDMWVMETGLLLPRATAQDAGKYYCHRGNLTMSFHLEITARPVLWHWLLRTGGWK

T3: human CD19 on CHO-K1-human CD19 cells (human, UniProt P15391 20-556)
T3 construct: whole, on cells; also called CHO-K1-human CD19-2C8
T3 sequence (looked up): T1 sequence (looked up)

T4: human CD19 exon1-3-His tag protein (human, UniProt P15391 20-186, limits assumed)
T4 construct: membrane-distal part of the extracellular region, made in HEK293E cells; not shown: His tag
T4 sequence (looked up): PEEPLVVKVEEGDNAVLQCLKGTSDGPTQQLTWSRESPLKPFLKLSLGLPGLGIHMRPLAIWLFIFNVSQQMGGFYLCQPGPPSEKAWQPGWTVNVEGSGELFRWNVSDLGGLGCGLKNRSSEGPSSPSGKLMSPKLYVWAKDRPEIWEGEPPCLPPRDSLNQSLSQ

B1: F3.121.4-L2H3 (antibody, mouse IgG1, kappa)
heavy: EVQLVQSGAEVKKPGASVKVSCKASGYTFTNYWMHWVRQRPGQGLEWMGEIDPSDNYANYNQEFQGRVTITVDKSASTAYMELSSLRSEDTAVYYCARHDGYFGALDYWGQGTTVTVSSAKTTPPSVYPLAPGSAAQTNSMVTLGCLVKGYFPEPVTVTWNSGSLSSGVHTFPAVLQSDLYTLSSSVTVPSSTWPSETVTCNVAHPASSTKVDKKIVPRDCGCKPCICTVPEVSSVFIFPPKPKDVLTITLTPKVTCVVVDISKDDPEVQFSWFVDDVEVHTAQTQPREEQFNSTFRSVSELPIMHQDWLNGKEFKCRVNSAAFPAPIEKTISKTKGRPKAPQVYTIPPPKEQMAKDKVSLTCMITDFFPEDITVEWQWNGQPAENYKNTQPIMDTDGSYFVYSKLNVQKSNWEAGNTFTCSVLHEGLHNHHTEKSLSHSPGK
light: EIVLTQSPDFQSVTPKEKVTITCSASSSISSNYLHWYQQKPDQSPKLLIKRTSNLASGVPSRFSGSGSGTDFTLTINSLEAEDAATYYCQQASSIPRMFTFGQGTKLEIKRADAAPTVSIFPPSSEQLTSGGASVVCFLNNFYPKDINVKWKIDGSERQNGVLNSWTDQDSKDSTYSMSSTLTLTKDEYERHNSYTCEATHKTSTSPIVKSFNRNEC
notes: humanized antibody of F3.121.4, VL2+VH3, murine IgG1 constant regions
B2: F3.121.4-L3H2 (antibody, mouse IgG1, kappa, V domains shown)
VH: EVQLVQSGAEVKKPGASVKVSCKASGYTFTNYWMHWVRQAPGQGLEWMGEIDPSDNYANYNQEFQGRVTITVDKSASTAYMELSSLRSEDTAVYYCARHDGYFGALDYWGQGTTVTVSS
VL: EIVLTQSPDFQSVTPKEKVTITCSASSSISSNYLHWYQQKPDQSPKFLIYRTSNLASGVPSRFSGSGSGTDFTLTINSLEAEDAATYYCQQASSIPRMFTFGQGTKLEIKR
notes: humanized antibody of F3.121.4, VL3+VH2, murine IgG1 constant regions
B3: F3.121.4-L2H4 (antibody, mouse IgG1, kappa)
heavy: B1 heavy with V5Q
light: B1 light
notes: humanized antibody of F3.121.4, VL2+VH4, murine IgG1 constant regions
B4: F3.121.4-L3H1 (antibody, mouse IgG1, kappa, V domains shown)
VH: B2 VH with G44R
VL: B2 VL
notes: humanized antibody of F3.121.4, VL3+VH1, murine IgG1 constant regions

target: T1, human CD19 on Raji cells; assay: FACS on Raji cells
Experimental: (§1) After the digestion was terminated, the cells were washed 2 times with a PBS buffer; and for suspension cell Raji, the supernatant of the medium was discarded by directly centrifugation, and the cell pellet was washed 2 times with PBS. After counting the cells in the previous step, the cell pellet was resuspended with [PBS+2% (w/w) BSA] blocking solution to 2×10⁶ cells/ml, and added to a 96-well FACS reaction plate at 50 μl/well, and then the sample to be tested was added at 50 μl/well, and incubated on ice for 2 h. The obtained mixture was centrifuged and washed 3 times with a PBS buffer. […] The obtained mixture was centrifuged and washed 5 times with a PBS buffer, and FACS (FACS Canto™, purchased from BD Company) was used for detection and result analysis. Data analysis was performed by software (FlowJo) to obtain the mean fluorescence intensity (MFI) of the cells. And then software (GraphPad Prism8) was used for analysis, data fitting, and EC50 value calculation. […] The same method was used to detect the binding of the chimeric antibodies to endogenous CD19-negative cells, MoLT4 cells (purchased from ATCC, CRL-1582), and CHO-K1 cells.

EC50 [pM]	Maximum mean fluorescence intensity [MFI]	Binder
450	29600	B1
420	32200	B2
370	29200	B3
380	32000	B4

target: T2, Human CD19-his protein; assay: ELISA, coated human CD19-His
Experimental: Human CD19-his protein (purchased from ACROBiosystems, catalog number: CD9-H52H2) was diluted with PBS to a final concentration of 4 μg/mL, and then added to a 96-well ELISA plate at 100 μl/well. The plate was sealed with a plastic film and incubated overnight at 4° C., the plate was washed 2 times with PBS the next day, and then a blocking solution [PBS+2% (w/w) BSA] was added for blocking at room temperature for 2 h. The blocking solution was poured off, and 100 nM gradiently diluted CD19 chimeric antibody or control antibody was added at 50 μl/well. After incubation at 37° C. for 2 h, the plate was washed 3 times with PBS. […] TMB substrate was added at 50 μl/well, and incubated at room temperature for 10 min, and then a stop solution (1.0 N HCl) was added at 50 μl/well. The OD450 nm values were read by an ELISA microplate reader (Multimode Plate Reader, EnSight, purchased from Perkin Elmer).

OD450 at 0.0001 nM [OD450]	OD450 at 0.001 nM [OD450]	OD450 at 0.01 nM [OD450]	OD450 at 0.10 nM [OD450]	OD450 at 1.00 nM [OD450]	OD450 at 10 nM [OD450]	OD450 at 100 nM [OD450]	Binder
0.1	0.14	0.39	1.55	2.47	2.33	2.32	B1
0.1	0.14	0.42	1.6	2.36	2.3	2.28	B2
0.1	0.14	0.39	1.53	2.36	2.27	2.34	B3
0.1	0.14	0.39	1.62	2.42	2.37	2.17	B4

target: T3, human CD19 on CHO-K1-human CD19 cells; assay: FACS on CHO-K1-human CD19 cells
Experimental: as §1

EC50 [pM]	Maximum mean fluorescence intensity [MFI]	Binder
1170	52200	B1
1080	52100	B2
1130	52000	B3
1130	53500	B4

target: T2, Human CD19-his protein; assay: ELISA on coated human CD19-His

EC50 (read off the curve) [pM]	Binder
~50	B1
~50	B2
~50	B3
~50	B4

target: T4, human CD19 exon1-3-His tag protein; assay: ELISA, coated human CD19 exon 1-3-His

OD450 at 0.0001 nM [OD450]	OD450 at 0.001 nM [OD450]	OD450 at 0.01 nM [OD450]	OD450 at 0.10 nM [OD450]	OD450 at 1.00 nM [OD450]	OD450 at 10 nM [OD450]	OD450 at 100 nM [OD450]	Binder
0.05	0.05	0.05	0.05	0.05	0.05	0.08	B1
0.05	0.05	0.05	0.05	0.05	0.05	0.12	B2
0.05	0.05	0.05	0.05	0.04	0.05	0.08	B3
0.05	0.05	0.05	0.05	0.05	0.05	0.09	B4

target: T2, Human CD19-his protein; assay: SPR Biacore, method of example 7.1, human CD19-His
Experimental: A sample buffer and a running buffer were HBS-EP+ (10 mM HEPES, 150 mM NaCl, 3 mM EDTA and 0.05% surfactant P20) (GE Healthcare; BR-1006-69). The flow-through cell was set to 25° C. The sample block was set to 16° C. Both were pretreated with the running buffer. In each cycle, an antibody to be detected was first captured with a Protein A chip, and then a single concentration of CD19 antigen protein was injected. The binding and dissociation processes of the antibody and the antigen protein were recorded, and finally Glycine pH 1.5 (GE Healthcare; BR-1003-54) was used to complete chip regeneration. The binding was measured by injecting different concentrations of recombinant human CD19-His proteins in a solution for 240 s with a flow rate of 30 μl/min. The concentration started from 200 nM (see the detailed results for the actual concentration in the test) and was diluted at 1:1, making a total of 5 concentrations. The dissociation phase was monitored for up to 600 s and was triggered by switching from sample solution to running buffer. The surface was regenerated by washing with a 10 mM glycine solution (pH 1.5) for 30 s at a flow rate of 30 μl/min. Bulk refractive index difference was corrected by subtracting the response obtained from the goat anti-human Fc surface. Blank injection was also subtracted (=double reference). For calculation of apparent KD and other kinetic parameters, Langmuir 1:1 model was used.
SPR (biacore) detection and data analysis were performed according to the method in example 7.1.

Kd [pM]	koff [s⁻¹]	kon [M⁻¹ s⁻¹]	Binder
1380	0.000188	137000	B1
0.0498	5.65e-09	113000	B2
1530	0.000186	122000	B3
244	3.18e-05	130000	B4
